Experimental data published in patent US20220315920.

System: TfuCascade (Cse2 N23A, Cas7-NLS) + TfuCas3 (Type I-E) Cse2 N23A (Thermobifida fusca)
Test: cell_activity
Settings: PAM AAG; for activity (% editing (6-TG resistance)): HAP1 cells RNP

AUGGACCGAAGCCGAGGCUCCCCCAGCGAAGCCCCUUUCCGUGAGCCCCACGCACGUGGG / AAGAAGCCGAGGCTCCCCCAGCGAAGCCCCTTTCC / GGAAAGGGGCTTCGCTGGGGGAGCCTCGGCTTCTT [crRNA HPRT-G2 ; HPRT target G2 (PAM+protospacer)]
activity (% editing (6-TG resistance)): 32

AUGGACCGACCUUGCACUACCUGUGGCUUCCAUUUUCCUGGUGAGCCCCACGCACGUGGG / AAGACCTTGCACTACCTGTGGCTTCCATTTTCCTG / CAGGAAAATGGAAGCCACAGGTAGTGCAAGGTCTT [crRNA HPRT-G1 ; HPRT target G1 (PAM+protospacer)]
activity (% editing (6-TG resistance)): 67

AUGGACCGCUGGACAUCACCUCCCACAACGAGGACUACACGUGAGCCCCACGCACGUGGG / AAGCTGGACATCACCTCCCACAACGAGGACTACAC / GTGTAGTCCTCGTTGTGGGAGGTGATGTCCAGCTT [crRNA tdTomato ; tdTomato target (PAM+protospacer)]
activity (% tdTomato-negative cells) (hESC RNP): 2.7

AUGGACCGGCUACGUCCAGGAGCGCACCAUCUUCUUCAAGGUGAGCCCCACGCACGUGGG / AAGGCTACGTCCAGGAGCGCACCATCTTCTTCAAG / CTTGAAGAAGATGGTGCGCTCCTGGACGTAGCCTT [crRNA GFP-G1 ; EGFP target G1 (PAM+protospacer)]
activity (% EGFP-negative cells) (hESC RNP electroporation, 80 pmol Cascade, 20 pmol Cas3, 7.3% in FIG. 1D): 13.1

AUGGACCGUCGAUGCCCUUCAGCUCGAUGCGGUUCACCAGGUGAGCCCCACGCACGUGGG / AAGTCGATGCCCTTCAGCTCGATGCGGTTCACCAG / CTGGTGAACCGCATCGAGCTGAAGGGCATCGACTT [crRNA GFP-G2 ; EGFP target G2 (PAM+protospacer)]
activity (% EGFP-negative cells) (hESC RNP): 2.7
